The assay addresses N-terminal domain of NOEY2 (NOEY2-N), LexA fusion (pGilda/LexA-NOEY2-N) (human) (UniProt O95661). In words: two-hybrid.
UniProt O95661, sequence (O95661 whole entry, the tested form may be a part): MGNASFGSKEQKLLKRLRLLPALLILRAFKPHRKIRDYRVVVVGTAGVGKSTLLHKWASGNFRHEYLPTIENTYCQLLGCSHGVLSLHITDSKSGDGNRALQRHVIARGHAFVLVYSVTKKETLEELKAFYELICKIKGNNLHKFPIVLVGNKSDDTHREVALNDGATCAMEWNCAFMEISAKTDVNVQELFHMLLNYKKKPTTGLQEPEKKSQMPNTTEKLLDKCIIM

Consider “VEGFR-2, B42 fusion (pJG4-5) (from UniProt P35968 1-1356) (receptor)”, for which the β-galactosidase activity is 92.2 unit.
